Reference: paper PMC7906951
Substitutions are numbered along the chain they refer to.

What was measured:
Card1 D294N = biological target: T1, Card1 D294N (Treponema succinifaciens, UniProt F2NWD3 1-372, D294N); assay: crystal structure
T1 sequence: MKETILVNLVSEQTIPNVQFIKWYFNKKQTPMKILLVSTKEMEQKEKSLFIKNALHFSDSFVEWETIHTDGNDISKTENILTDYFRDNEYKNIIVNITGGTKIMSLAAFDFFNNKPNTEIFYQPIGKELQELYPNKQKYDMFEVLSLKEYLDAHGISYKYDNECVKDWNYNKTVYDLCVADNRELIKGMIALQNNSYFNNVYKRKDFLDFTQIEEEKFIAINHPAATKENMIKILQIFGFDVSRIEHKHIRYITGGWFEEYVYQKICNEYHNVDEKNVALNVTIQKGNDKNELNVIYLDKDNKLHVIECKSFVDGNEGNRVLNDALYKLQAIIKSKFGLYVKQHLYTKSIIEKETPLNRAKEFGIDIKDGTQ

Card1 (Tresu_2185, Cad1) = biological target: T2, Card1 (Tresu_2185, Cad1) (Treponema succinifaciens, UniProt F2NWD3 1-372); assay: ITC
T2 sequence: T1 sequence with N294D

## AAAA (ssRNA, cyclic 3'-5' oligoadenylate; no free ends) [cA4 (cyclic tetraadenylate)]
Card1 D294N
  binding result: binds
Card1 (Tresu_2185, Cad1)
  Kd: 15 nM

## AAAAAA (ssRNA, cyclic 3'-5' oligoadenylate; no free ends) [cA6 (cyclic hexaadenylate)]
Card1 (Tresu_2185, Cad1)
  Kd: 78 nM
